Laboratory results taken from patent US12427163B2, “Anti-VTCN1 antibodies and antibody drug conjugates” (Bluefin BioMedicine, Inc., priority 2017, dated 2025).

T1: VTCN1 IgC domain (Homo sapiens, UniProt Q7Z7D3)
T1 construct: one with an IgV domain only and one with an IgC domain only; expressed in transfected cells
T1 sequence (Q7Z7D3 153-241 limits assumed): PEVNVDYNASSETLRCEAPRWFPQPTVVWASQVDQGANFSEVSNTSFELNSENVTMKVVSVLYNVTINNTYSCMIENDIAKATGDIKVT

T2: VTCN1 IgV domain (Homo sapiens, UniProt Q7Z7D3)
T2 construct: one with an IgV domain only and one with an IgC domain only; expressed in transfected cells
T2 sequence (Q7Z7D3 35-146 limits assumed): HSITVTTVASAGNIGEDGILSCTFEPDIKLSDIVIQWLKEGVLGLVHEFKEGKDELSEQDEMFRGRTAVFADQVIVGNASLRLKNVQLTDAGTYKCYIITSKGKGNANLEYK

T3: 293-VTCN1 cells (Homo sapiens, UniProt Q7Z7D3)
T3 construct: 293-VTCN1 (full length); expressed in transfected cells; host or cells: HEK293
T3 sequence (Q7Z7D3 25-282): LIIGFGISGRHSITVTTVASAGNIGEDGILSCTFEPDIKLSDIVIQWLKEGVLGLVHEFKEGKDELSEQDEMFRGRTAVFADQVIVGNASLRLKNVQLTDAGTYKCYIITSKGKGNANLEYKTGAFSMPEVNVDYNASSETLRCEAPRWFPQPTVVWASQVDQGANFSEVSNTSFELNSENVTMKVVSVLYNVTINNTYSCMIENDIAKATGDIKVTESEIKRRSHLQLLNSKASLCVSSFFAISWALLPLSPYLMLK

T4: 293-VTCN1 (mouse) (Mus musculus, UniProt Q7TSP5)
T4 construct: expressed in transfected cells
T4 sequence (Q7TSP5 25-257): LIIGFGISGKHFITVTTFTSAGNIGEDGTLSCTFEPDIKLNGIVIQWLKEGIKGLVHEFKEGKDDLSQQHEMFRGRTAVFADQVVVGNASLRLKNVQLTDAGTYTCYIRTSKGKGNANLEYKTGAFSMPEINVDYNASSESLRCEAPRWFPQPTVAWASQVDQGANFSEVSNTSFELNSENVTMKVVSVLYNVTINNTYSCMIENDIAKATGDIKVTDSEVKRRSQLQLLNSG


Key:
MX-1 cells = assay: Flow cytometry binding to MX-1 cells; design: species or system human; conditions: TNBC cell line
Experimental: (§1) Supernatant from hybridoma wells, containing VTCN1 specific antibodies, were re-tested on human breast cell lines SKBR3 and ZR-75-1. 70% confluent MX-1 cells in 10 cm dish were gently washed with 1× cold PBS once, 7 ml cold flow buffer (1×PBS, 0.5% BSA, 2 mM EDTA) was then added, the cells were gently scraped in to flow buffer using rubber cell lifter, pipet up down with 10 ml transfer pipets gently to resuspend the cells. The cells were pelleted by centrifuging them for 5 minutes at 1200 rpm at room temperature. The cell pellets were resuspended in cold flow buffer, the cells were counted and the concentration was adjusted to 1×10^6 cells per 1 mL. Using a multichannel pipette, 200 μL was collected and transferred to 96-V bottom polypropylene plates and spun at 1250 rpm for 5 min at 4° C. to pellet the cells. The cell pellets were resuspended with hybridoma supernatant diluted 2-fold with cold flow buffer and incubated at 4° C. for 30 min. After incubation, cells were washed 2× with flow buffer and then labeled with anti-rat Alexa 647 secondary antibodies for 30 min at 4° C. Unbound secondary antibodies were removed by washing the cells 2× with flow buffer. […]
Antibody concentration was determined by OCTET™ using protein G biosensor. […] Cells were washed twice with flow buffer and analyzed using MACSQuant Analyzer 10 flow cytometer (Miltenyi Biotec, Bergisch Gladbach, Germany). […]

VTCN1 IgC domain = target: T1, VTCN1 IgC domain; assay: Flow cytometry binding to 293-VTCN1-IgC domain cells; conditions: IgC domain only
From the text: (§2) Two constructs were made, one with an IgV domain only and one with an IgC domain only. 293 cells were transfected with VTCN1-IgV and VTCN1-IgC constructs, and stable cell lines of 293 expressing VTCN1-IgV or VTCN1-IgC domains were made. Expression constructs also made to express VTCN1 (monkey, 99% identical to human VTCN1) and VTCN1 (mouse, 88% identical to human VTCN1), stable 293-VTCN1 (monkey), and 293-VTCN1 (mouse) cell lines made by transfecting these constructs.
(§3) Briefly, the 7C8 antibody was incubated with 293 cells, 293-VTCN1 (full length), 293-VTCN1-IgV domain, 293-VTCN1-IgC domain cell lines for 30 min at 4° C., unbound antibody was washed away, cells were then incubated with anti-human-Alexa488 conjugate, and analyzed by flow cytometry.
(§4) It was also assessed whether these antibodies bind to IgV or IgC domain of VTCN1 protein, using 293-VTCN1-IgV domain expressing cells and 293-VTCN1-IgC domain expressing cells using FACS analysis, as in Example 3.

VTCN1 IgV domain = target: T2, VTCN1 IgV domain; assay: Flow cytometry binding to 293-VTCN1-IgV domain cells; conditions: IgV domain only
From the text: as §2, §3, §4

ZR-75-1 cells = assay: Flow cytometry binding to ZR-75-1 cells; design: species or system human
Experimental: as §1, with “buffer. Cells were then resuspended in 200 μL of flow buffer containing PI to identify dead cells and remove from analysis.” for “buffer.”

293-VTCN1 (monkey) = assay: Flow cytometry binding to 293-VTCN1 (monkey) cells; design: species or system cynomolgus monkey
From the text: as §2
(§5) Flow cytometry analysis was also performed with 7C8 binding to 293-VTCN1 (monkey) and 293-VTCN1 (mouse).

SKBR3 cells = assay: Flow cytometry binding to SKBR3 cells (hybridoma screening); design: species or system human
Experimental: as §1, with “buffer. Cells were then resuspended in 200 μL of flow buffer containing PI to identify dead cells and remove from analysis.” for “buffer.”

293-VTCN1 cells = target: T3, 293-VTCN1 cells; assay: Flow cytometry binding to 293-VTCN1 cells (full length)
Experimental: For each hybridoma, unique recombinant heavy chains were paired with unique recombinant light chains. These plasmid pairs were transfected into CHO cells in 24-well plates. Twelve days later conditioned medium from each pairing was subjected to concentration determination by OCTET™ and screened by Flow cytometric analysis for binding to 293-VTCN1 cells.
as §3
Antibody concentration was determined by OCTET™ using protein G biosensor. 0.05 μg/ml, 0.1 μg/ml, 0.5 μg/ml, 1 μg/ml, 5 μg/ml, 10 μg/ml antibodies were incubated with live cells for 30 min. on ice, unbound antibodies were washed off, and a conjugated anti-mouse 2nd antibody was added to the wells for 15 min. Cells were washed twice with flow buffer and analyzed using MACSQuant Analyzer 10 flow cytometer (Miltenyi Biotec, Bergisch Gladbach, Germany). Results from flow cytometry assays indicate that mouse anti-VTCN1 antibodies are capable of binding to 293-VTCN1 cells and MX-1 cells.

293-VTCN1 (mouse) = target: T4, 293-VTCN1 (mouse); assay: Flow cytometry binding to 293-VTCN1 (mouse) cells
From the text: as §2, §5

human monocytes = assay: Cytokine treatment of monocytes, expression of VTCN1, PD-L1, CD80 by flow cytometry; format: cell-based; conditions: 24, 48, or 73 hours
Experimental: VTCN1 is expressed in monocytes and macrophages in a tumor microenviroment, the expression induced by cytokines in tumor microenviroment. VTCN1 positive macrophages inhibit T cell activation. Monocytes from healthy donors were treated with IFNγ and IL-6 to assess VTCN1 expression. Monocytes were enriched from fresh PBMC from healthy donor using a monocyte enrichment kit from Stemcell Technologies, and the purity of the obtained monocytes is greater than 95%. Monocytes were cultured in 24 well plate with different concentration of INFγ or LI-6 for 24, 48, or 73 hours, expression of VTCN1, PD-L1, and CD80 was assessed by flow cytometry. […] CD80 was expressed at low level in monocytes, and is not very responsive to cytokine treatment.

Row | Molecule | binding to MX-1 cells (MX-1 cells) | binding to IgC domain of VTCN1 (VTCN1 IgC domain) | binding to IgV domain of VTCN1 (VTCN1 IgV domain) | binding to ZR-75-1 cells (ZR-75-1 cells) | cross reactivity with monkey VTCN1 (293-VTCN1 (monkey)) | binding to SKBR3 cells (SKBR3 cells) | binding to 293-VTCN1 cells (full length VTCN1) (293-VTCN1 cells) | cross reactivity with mouse VTCN1 (293-VTCN1 (mouse)) | VTCN1 and PD-L1 expression in monocytes (human monocytes)
1 | 7C8: fully human VTCN1 antibody; VH SEQ ID NO: 212, VL SEQ ID NO: 216 (antibody, V domains shown) VH: QVQLQESGPGLVKPSETLSLTCAVSGYSISSGYYWGWIRQPPGKGLEWIGSIYHSGTTYYNPSLKSRVTISVDTSKNQFSLKLNSVTAADTAVYYCATYSSGWYFYFDYWGQGTLVTVSS VL: DIQLTQSPSFLSASVGDRVTITCRASQGISSYLAWYQQKPGKAPKLLIYVASTLQSGVPSRFSGSGSGTEFTLTISSLQPEDFATYYCQQLNSYPITFGQGTRLEIK | binds | does not bind | does not bind | binds | cross reacts | binds | binds to full length VTCN1 | cross reacts | –
2 | IFNγ: cytokine added to human monocyte cultures (protein, UniProt P01579 24-161, looked up) Interferon gamma: QDPYVKEAENLKKYFNAGHSDVADNGTLFLGILKNWKEESDRKIMQSQIVSFYFKLFKNFKDDQSIQKSVETIKEDMNVKFFNSNKKKRDDFEKLTNYSVTDLNVQRKAIHELIQVMAELSPAAKTGKRKRSQMLFRG | – | – | – | – | – | – | – | – | VTCN1 and PD-L1 expression was induced
